Measurements published in patent publication US20100068806A1, “NOVEL METHODS AND REAGENTS DIRECTED TO PRODUCTION OF CELLS” (SUOMEN PUNAINEN RISTI, VERIPALVELU, priority 2007, published 2010).
Entries after “also recorded” stand apart in the source; their conditions may differ.

Experiments:
[1] = tested on: SSEA-4 enriched human embryonic stem cells (hESC); settings: Venable et al. 2005; cited from earlier work
hESC [2] = test: Fluorescein-labelled lectin staining of hESC colonies on mouse feeder layers; format: binding, human; design: key to lectin ligand profile, hESC: + present in cell surface; − not present in cell surface; settings: for inhibition of lectin binding to hESC by carbohydrate: MAA or PSA binding
Description: (§1) Lectin staining. Fluorescein-labeled lectins were from EY Laboratories (USA) and the stainings were performed essentially after manufacturer's instructions. The specificity of the staining was controlled in parallel experiments by inhibiting lectin binding with specific oligo- and monosaccharides.
(§2) From a practical perspective stem cell research would be best served by the identification of target structures on cell surface. To investigate whether individual glycan structures we had identified would be accessible to reagents targeting them at the cell surface we performed lectin labelling of two candidate structure types. Lectins are proteins that recognize glycans with specificity to certain glycan structures also in hESC (Venable et al., 2005). To study the localization of glycan components in hESC, stem cell colonies grown on mouse feeder cell layers were labeled in vitro by fluorescein-labelled lectins (FIG. 2). […] Such glycans would thus be available for recognition by more specific glycan-recognizing reagents such as antibodies. In contrast, the cell surfaces were not labelled by Pisum sativum agglutinin (PSA) that recognizes α-mannosylated glycans (FIG. 2b).
The glycome profile data was used to design glycan-specific labeling reagents for hESC. The most interesting glycan types were chosen to study their expression profiles by lectin histochemistry as exemplified in FIG. 5 for the lectins that recognize either α2,3-sialylated (MAA-lectin, FIG. 5A.) binding to the hESC cells or α-mannosylated glycans (PSA-lectin, FIG. 5B.) binding to the surfaces of feeder cells (MEF). The binding of the lectin reagents was inhibited by specific carbohydrate inhibitors, sialylα2-lactose and mannose, respectively (FIG. 5C. and 5D.).

hESC [3] = test: Short (5 days) hESC culture on ECA types and conjugates; format: cell-based, human; design: key: +++: many cells attached on day 5; ++: scattered cells on day 5; +: few cells left on day 5; −: no attached cells after day 5; settings: day 5
[4] = tested on: hESC lines FES29 and FES30; test: hESC culture on lectin-coated plates in mEF-conditioned media; format: cell-based, human; design: key to Growth: +++: cells attach and can grow; cells attach and can grow but less cells/slower growth than +++; +: only few cells attach, one split; −: no cells after p1, cannot be splitted; #: less cells attach and slower early growth; settings: for Growth: culture experiment in mEF-conditioned media; for growth of hESC on coated plates: mEF-conditioned media
Text: FES 30 hESC line was used. hESCs were transferred from mEF to Matrigel™ and cultured according to the protocol found on the Geron Corporation website at: http://www.geron.com/showpage.asp?code=prodstprot
All passages were done using collagenase. The passages were also done using PBS without collagenase treatment.
The cells were transferred to ECA-coated 12-well plates (Corning) and cultured in mEF-conditioned media for 5-11 days, whereafter they were divided 1:2 or 3:4. RNA samples were extracted from a cell sample every second or third passage and analyzed for expression of stem cell and differentiation markers (FIG. 31).
The ECA (EY Laboratories, USA; L-5901-5) coating was performed as follows for 12 well plates. ECA lectin was stored frozen as stock solution of 1 mg/ml. It was thawed on ice and diluted as 100 μl lectin stock+600 μl PBS, sterile filtered (Millex-GV, SLGV 013 SL, 0.22 μm) in laminar hood. This solution, i.e. 100 μg/700 μl PBS solution was applied to each well and incubated overnight at +4 C. On the following day lectin solution was removed and wells were washed with 3×1 ml of sterile PBS.
(§3) hESC were cultured at least two passages feeder-free on Matrigel (BD Biosciences, Bedford, Mass., USA) before plating on lectin. Matrigel-culturing was continued side by side lectin-culturing as comparison. Cells were cultured during the whole experiment in standard Knockout™ DMEM media with 20% Knockout™ Serum Replacement and 8 ng/ml of recombinant basicFGF (all from Gibco/Invitrogen, Paisley, UK; Mikkola M. et al. BMC Dev. Biol. 6:40, 2006) conditioned on mouse feeder cells for 24 h. Cells were detached with collagenase IV while splitting.
(§4) Lectins were diluted in PBS and sterile filtered before applying on Nunclon cell culture plates (Nunc, Roskilde, Denmark). The amount of lectin was 27 μg/cm^2 and plates were incubated over night at +4° C. Before splitting cells on lectin wells were washed three times with PBS.

[5] = tested on: bone marrow derived mesenchymal stem cells (BM MSC); test: FITC-lectin staining of fixed BM MSC, fluorescence microscopy; format: binding, human
[6] = tested on: human embryonic stem cell (hESC) lines FES 22 and FES 30; test: FITC-lectin and antibody labelling of hESC, fluorescence microscopy; format: binding
mouse feeder cell (mEF) = test: FITC-lectin and antibody labelling of mouse feeder cells, fluorescence microscopy; format: binding; settings: fixed cells
[7] = tested on: cord blood mononuclear cell (CB MNC); test: FACS analysis of FITC-lectin binding to cord blood mononuclear cells; design: species or system human; settings: seven CB MNC preparations
mouse feeder cells (MEF) = test: Fluorescein-labelled lectin staining of mouse feeder cells in hESC culture; format: binding; design: key: + present in cell surface; − not present in cell surface; settings: MEF cell surface
Description: as §1, §2
The glycome profile data was used to design glycan-specific labeling reagents for hESC. […]

hESC (FES29) = test: FACS of Tra-1-60 and SSEA-3 in hESC cultured on lectins or Matrigel; format: cell-based, human
Description: as §3, §4

[8] = tested on: Human Bone marrow-derived mesenchymal stem cells (MSC); test: Flow cytometry of CD105, CD45, CD73, HLA-DR in MSC grown on lectins; format: cell-based; settings: MSC grown on lectin
Description: Briefly, bone marrow obtained during orthopedic surgery was cultured in Minimum Essential Alpha-Medium (α-MEM), supplemented with 20 mM HEPES, 10% FCS, 1× penicillin-streptomycin and 2 mM L-glutamine (all from Gibco). After a cell attachment period of 2 days the cells were washed with Ca2+ and Mg2+ free PBS (Gibco), and subcultured at a density of 2000-3000 cells/cm2 in the same media on 24-well chamber slides coated with lectin molecules. Cells were crown at 37° C. with 5% CO2, fresh media was changed twice a week until near confluence. MSCs were cultured on lectin coated well plates for five passages. MSC passages 5-10 were used in the experiment.
Proliferating MSCs in passage 5 were grown on different lectins for 5 days. Cells were washed with PBS and harvested into single cell suspensions by Versene solution. Detached cells were centrifuged at 600×g for five minutes at room temperature. Cell pellet was washed twice with 0.3% BSA-PBS, centrifuged at 600×g and resuspended in 0.3% BSA-PBS. Cells were placed in conical tubes in aliquots of 50 000 cells each. Cell aliquots were incubated with antibodies in dilution of 2 μl/10^5 cells for 30 minutes at +4° C. in the dark. After incubation cells were washed with 0.3% BSA-PBS, centrifuged and resuspended in 0.3% BSA-PBS.
Unlabeled cells and cells grown on plastic were used as controls. Antibody binding was detected by flow cytometry (FACSAria, Becton Dickinson). Data analysis was made with FACSDiva™ Flow Cytometry Software Version 5.02.

RUNX2 = test: Quantitative RT-PCR of RUNX2 in MSC grown on lectins; format: cell-based, human
Text: (§5) Total cellular RNA from the BM derived mesenchymal stem cells grown for five passages on selected lectins was extracted by using RNeasy miniprep-kit (Qiagen, Chatsworth, Calif.) according to the manufacturers's instructions. RNA was then reverse transcribed to cDNA with High Capacity cDNA Reverse Transcription reagents according to manufacturers instructions (Applied Biosystems) and used as a template in TaqMan® PCR reaction. TaqMan® PCR reaction was used to estimate the quantitative levels of stem cell differentiation markers. TaqMan® PCR reaction performed in standard conditions using TaqMan® Universal Gene Expression Master Mix (Applied Biosystems) and Pre-developed Inventored Gene Expression Assays for FABP4 (Hs00609791_m1) and RUNX2 (Hs00231692_m1) (Applied Biosystems).
(§6) Real time quantitative PCR reactions were performed with the ABI PRISM 7000 Sequence Detector System (Applied Biosystem) in standard conditions. PCR amplifications were performed in a total volume of 50 μl, containing 1 μl cDNA sample. TaqMan® Universal Gene Expression Master Mix (Applied Biosystems) was used in all experiments. Pre-developed Inventored Gene Expression Assays for FABP4 (Hs00609791_m1) and RUNX2 (Hs00231692_m1) (Applied Biosystems) were used to estimate the quantitative levels of stem cell differentiation markers. Pre-developed TaqMan® assay reagents for endogenous control human TATA-box binding gene labeled with VIC reporter dye (Hs 999999_m19) was used for amplification of control gene.
(§7) PCR was started with 2 min at 50° C. and the initial 10 min denaturing temperature was 94° C., followed by a total of 40 cycles of 15 s of denaturing and 1 min of annealing and elongation at 60° C.

FABP4 = test: Quantitative RT-PCR of FABP4 in MSC grown on lectins; format: cell-based, human
Text: as §5, §6, §7

[9] = start point (UEA-1/DSA/Galectin 1 experiment)
[10] = MSC grown five passages on lectin

## PHA-L: Phaseolus vulgaris lectin
[1]
  lectin binding to SSEA-4 enriched hESC: partially bind to hESC

## CC(=O)N[C@H]1[C@H]([C@H](O)[C@H](O)CO)O[C@@](O[C@H]2[C@@H](O)[C@@H](CO)O[C@@H](O[C@H]3[C@H](O)[C@@H](O)C(O)O[C@@H]3CO)[C@@H]2O)(C(=O)O)C[C@@H]1O (some centres unmarked) [3′-sialyllactose]
hESC [2]
  inhibition of lectin binding to hESC by carbohydrate: blocks MAA binding
hESC [2]; listed as α3′-sialyllactose
  inhibition of lectin binding to hESC by carbohydrate: inhibited

## O=C[C@@H](O)[C@@H](O)[C@H](O)[C@H](O)CO [D-mannose]
hESC [2]
  inhibition of lectin binding to hESC by carbohydrate: inhibited; also recorded: blocks PSA binding

## rGal-1: rGal-1, presumably recombinant galectin-1, coating in short hESC culture
hESC [3]
  short (5 days) culting: −

## PHA-E: Phaseolus vulgaris lectin recognizing N-glycan core epitope (bisecting GlcNAc)
[4]
  Growth: +++#
  growth of hESC on coated plates: weak
[1]
  lectin binding to SSEA-4 enriched hESC: partially bind to hESC

## Galectin-1 in solution: Galectin-1 added in solution, not immobilized
[4]
  Growth: −
  growth of hESC on coated plates: could not support the cell growth

B1: PNA: peanut lectin, Gal/GalNAc structures (protein, UniProt P02872 24-273, looked up)
Galactose-binding lectin: AETVSFNFNSFSEGNPAINFQGDVTVLSNGNIQLTNLNKVNSVGRVLYAMPVRIWSSATGNVASFLTSFSFEMKDIKDYDPADGIIFFIAPEDTQIPAGSIGGGTLGVSDTKGAGHFVGVEFDTYSNSEYNDPPTDHVGIDVNSVDSVKTVPWNSVSGAVVKVTVIYDSSTKTLSVAVTNDNGDITTIAQVVDLKAKLPERVKFGFSASGSLGGRQIHLIRSWSFTSTLITTTRRSIDNNEKKIMNMASA
[5]; FITC-labelled lectin, cell surface of cultured BM MSC
  lectin binding / labelling of BM MSC: less intense labelling
[5]; sialidase treatment before lectin binding
  effect of sialidase treatment of the cells on lectin binding: also increased by sialidase treatment
[6]; fixed cells on mouse feeder layer
  labelling of hESC: Abundant labelling
[6]; hESC compared with mEF
  specific binding, hESC versus mEF: bound specifically to hESC but not to mEF
Mouse feeder cell (mEF)
  labelling of mEF: absence of specific binding
[7]
  lectin binding to CB MNC: variable binding between CB samples
hESC [2]; hESC cell surface
  lectin ligand profile, hESC: +
Mouse feeder cells (MEF)
  lectin ligand profile, MEF: −
[1]
  lectin binding to SSEA-4 enriched hESC: high binding percentage

B2: Galectin-1: bovine Galectin-1, N-acetyllactosamine binding lectin (protein, UniProt P11116 2-135, looked up)
Galectin-1: ACGLVASNLNLKPGECLRVRGEVAADAKSFLLNLGKDDNNLCLHFNPRFNAHGDVNTIVCNSKDAGAWGAEQRESAFPFQPGSVVEVCISFNQTDLTIKLPDGYEFKFPNRLNLEAINYLSAGGDFKIKCVAFE
[4]; FES29
  passages hESC cultured on lectin: 7 passages
[4]
  Growth: +++
  growth of hESC on coated plates: also effective
hESC (FES29); FES29, after 7 passages
  expression of SSEA-3: 32.3%
  expression of Tra-1-60: 21.6%
hESC (FES29); p7
  SSEA-3: 32.3
  Tra-1-60: 21.6
hESC (FES29); [9]
  SSEA-3: 89.2
  Tra-1-60: 69.6
[8]
  CD 45: neg
  CD73: pos
  CD105: pos
  HLA-DR: 23.8%
RUNX2; [10]
  RUNX- Endogenous control gene avarage Δct: 2.76
RUNX2; RUNX
  Expression relative to plastic 2e − ΔΔCt: 0.31
RUNX2; RUNX, relative to plastic
  ΔCt − Δctplastic relative ΔΔCt: 1.87
FABP4; FABP
  Expression relative to plastic 2e − ΔΔCt: 12.85
FABP4; FABP, relative to plastic
  ΔCt − Δctplastic relative ΔΔCt: −1.86
FABP4; [10]
  FABP - Endogenous control gene avarage Δct: 5.24
